Key:
[1] = biological target: the molecule itself; experiment: SEC; size exclusion chromatography of purified untagged recombinant protein; compared with size markers (443 kDa marker, void volume)
[2] = biological target: the molecule itself; experiment: AUC; sedimentation velocity, 40 000 rpm, 20°C, 20 mM HEPES, 1 mM TCEP, pH 7.9, 500 mM KCl; FL and ΔC20 at equal molar concentration (0.46 and 0.57 mg/ml); continuous c(s) model

B1: recombinant untagged full-length rat RBPMS-A (natural protein)
chain: not shown
notes: RBPMS isoform A (RBPMS-A), rat, cDNA NCBI XM_006253240.2; Exists as a mixture of dimers and higher-order oligomers; From pET15b-TEV-RBPMS-A; also called FL RBPMS; RBPMS-A FL; source: E. coli BL21(DE3), purified (HisTrap, TEV cleavage, Mono Q, Superdex 200); not shown: His6, N-terminal, cleaved
B1 was tested, and the “stoichiometry N” value [1] was 2 and the “stoichiometry N” value [2] was ~21.
